Results on one substance are retold here after patent publication US20250127904A1, “SIGLEC LIGANDS, CONJUGATES, AND METHODS OF USE THEREOF” (Osprey Biopharmaceuticals, Inc., priority 2023, published 2025).

One series deals with C57BL/6 mice. In words: In vivo anti-drug antibody (ADA) titers in mice. Further details: species or system mouse. The note with it: 4 mg/kg subcutaneous, day 20. On the procedure: Adalimumab and Adalimumab-Siglec Ligand conjugates were prepared as described in Example 4. The Adalimumab-Siglec ligand was conjugated by maleimide coupling to engineered cysteine residue L443C in the heavy chain constant region.
To evaluate the production of antibodies specific to adalimumab and/or adalimumab-Siglec Ligand conjugates, C57BL/6 mice were immunized through subcutaneous injection with adalimumab or CD22 ligand-conjugated adalimumab. On study day −1, animals were randomized into treatment groups based on body weight. On study day 0, animals were bled for baseline serum and then injected subcutaneously with adalimumab or the adalimumab-Siglec Ligand conjugate. The individual antigens were prepared by making antigen solution in sterile PBS pH 7.4. […]
ADA assays were performed on 96-well assay plates (Nunc Plates, Black 96-Well Immuno Plates, Thermo Scientific, Cat. No. 437111) coated with antigen, as follows. […] The excitation and emission settings for the QuantaBlu Fluorogenic Peroxide Substrates are 325 nm and 420 nm and the relative florescence units were measured using a SpectraMax plate reader. […] The titer cut point was determined by calculating the mean of the naïve, untreated mice and adding twice the standard deviation of the untreated samples.

A short description of series [1]: Pharmacokinetic monitoring in mice after single subcutaneous administration. The format is in vivo, mouse. The note with it: C57BL/6 mice, single subcutaneous dose 4 mg/kg. On the procedure: Pharmacokinetic monitoring was also carried out in the same C57BL/6 mice following a single subcutaneous administration of adalimumab or the SigL-conjugated adalimumab antibodies. Animals were bled via the retro-orbital sinus throughout the study under inhaled isoflurane anesthesia at 1 h, 6 h, 1-day, 2-days, 6-days, 13-days, 20 days and 27-days post test-article administration. Whole blood was collected into Microvette K2EDTA capillary collection tube (Sarstedt Inc) and then further processed following manufactures instructions to collect plasma. Levels of adalimumab and SigL-conjugated adalimumab in plasma samples were measured using an AlphaLISA human IgG assay (Perkin Elmer) following manufacturer's protocols.

As for Adalimumab, the ADA titers entry in the series with C57BL/6 mice is “high ADA titers”. Also, in series [1], the clearance entry is “significantly increased clearance” and the “time of falling below the limit of quantitation (BLOQ)” value was determined as 13 days.
